Results published in US20130005646A1 (Novo Nordisk, published 2013).
Values belong to the binder of their own block, whether it stands above or below them. Starred links: 1 amine or outer side, 2 acyl side, 3 side chain; linkers in the order of their positions; H or OH if unused. Positions of bridges follow the written chain, without caps; N, C: chain ends. *: point of attachment. X1 = (S)‑4‑Carboxy‑4‑(19-carboxynonadecanoylamino)butyryl, O=C(O)CCCCCCCCCCCCCCCCCCC(=O)N[C@@H](CCC(=O)*)C(=O)O; C20 diacid = O=C(O)CCCCCCCCCCCCCCCCCCC(=O)*; γGlu = O=C(O)[C@H](CCC(=O)[*:2])N[*:1]

Tests used:
[1] = target: T1, human amylin 3(a) receptor (human calcitonin receptor + RAMP-3) (human, UniProt P30988 25-474; O60896 24-148); assay: cell-based or functional assay
T1 sequence (looked up) 1: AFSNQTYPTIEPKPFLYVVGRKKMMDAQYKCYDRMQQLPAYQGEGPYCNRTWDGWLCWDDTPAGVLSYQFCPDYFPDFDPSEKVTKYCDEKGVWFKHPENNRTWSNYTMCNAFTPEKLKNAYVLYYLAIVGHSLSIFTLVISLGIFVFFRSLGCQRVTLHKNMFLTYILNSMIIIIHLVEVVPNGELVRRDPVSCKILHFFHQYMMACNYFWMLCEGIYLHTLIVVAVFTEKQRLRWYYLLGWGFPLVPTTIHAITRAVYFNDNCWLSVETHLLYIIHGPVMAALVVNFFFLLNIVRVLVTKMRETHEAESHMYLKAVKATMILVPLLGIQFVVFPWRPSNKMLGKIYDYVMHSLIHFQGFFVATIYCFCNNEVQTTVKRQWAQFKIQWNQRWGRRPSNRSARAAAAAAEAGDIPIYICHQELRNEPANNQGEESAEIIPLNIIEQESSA
T1 sequence (looked up) 2: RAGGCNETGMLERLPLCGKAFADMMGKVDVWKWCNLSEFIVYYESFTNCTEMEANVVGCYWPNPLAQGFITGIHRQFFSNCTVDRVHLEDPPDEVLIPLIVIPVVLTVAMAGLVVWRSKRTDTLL

[2] = target: T2, human calcitonin (a) receptor (human, UniProt P30988 25-474); assay: cell-based or functional assay
T2 sequence (looked up): T1 sequence (looked up) 1

B1: N-alpha-[(S)-4-Carboxy-4-(19-carboxynonadecanoylamino)butyryl]-[His1,Glu8,Glu14,His17,Arg18]-pramlintide (peptide)
peptide: {C20 diacid-γGlu}-HCNTATCETQRLAEFLHRSSNNFGPILPPTNVGSNTY-NH2
modifications: disulfide 2-7
SMILES: CC[C@H](C)[C@H](NC(=O)[C@@H]1CCCN1C(=O)CNC(=O)[C@H](Cc1ccccc1)NC(=O)[C@H](CC(N)=O)NC(=O)[C@H](CC(N)=O)NC(=O)[C@H](CO)NC(=O)[C@H](CO)NC(=O)[C@H](CCCNC(=N)N)NC(=O)[C@H](Cc1c[nH]cn1)NC(=O)[C@H](CC(C)C)NC(=O)[C@H](Cc1ccccc1)NC(=O)[C@H](CCC(=O)O)NC(=O)[C@H](C)NC(=O)[C@H](CC(C)C)NC(=O)[C@H](CCCNC(=N)N)NC(=O)[C@H](CCC(N)=O)NC(=O)[C@@H](NC(=O)[C@H](CCC(=O)O)NC(=O)[C@@H]1CSSC[C@H](NC(=O)[C@H](Cc2c[nH]cn2)NC(=O)CC[C@H](NC(=O)CCCCCCCCCCCCCCCCCCC(=O)O)C(=O)O)C(=O)N[C@@H](CC(N)=O)C(=O)N[C@@H]([C@@H](C)O)C(=O)N[C@@H](C)C(=O)N[C@@H]([C@@H](C)O)C(=O)N1)[C@@H](C)O)C(=O)N[C@@H](CC(C)C)C(=O)N1CCC[C@H]1C(=O)N1CCC[C@H]1C(=O)N[C@H](C(=O)N[C@@H](CC(N)=O)C(=O)N[C@H](C(=O)NCC(=O)N[C@@H](CO)C(=O)N[C@@H](CC(N)=O)C(=O)N[C@H](C(=O)N[C@@H](Cc1ccc(O)cc1)C(N)=O)[C@@H](C)O)C(C)C)[C@@H](C)O
Amylin receptor human EC50 [1]: 602 pM | CTa receptor human EC50 [2]: 4300 pM

B2: N-alpha-[(S)-4-Carboxy-4-(19-carboxynonadecanoylamino)butyryl]-[His1,Glu14,His17,Arg18,Ala25,Pro26,Ser28,Ser29]-pramlintide (peptide)
peptide: X1-HCNTATCATQRLAEFLHRSSNNFGAPLSSTNVGSNTY-NH2
modifications: disulfide 2-7
SMILES: CC(C)C[C@H](NC(=O)[C@H](CCCNC(=N)N)NC(=O)[C@H](CCC(N)=O)NC(=O)[C@@H](NC(=O)[C@H](C)NC(=O)[C@@H]1CSSC[C@H](NC(=O)[C@H](Cc2c[nH]cn2)NC(=O)CC[C@H](NC(=O)CCCCCCCCCCCCCCCCCCC(=O)O)C(=O)O)C(=O)N[C@@H](CC(N)=O)C(=O)N[C@@H]([C@@H](C)O)C(=O)N[C@@H](C)C(=O)N[C@@H]([C@@H](C)O)C(=O)N1)[C@@H](C)O)C(=O)N[C@@H](C)C(=O)N[C@@H](CCC(=O)O)C(=O)N[C@@H](Cc1ccccc1)C(=O)N[C@@H](CC(C)C)C(=O)N[C@@H](Cc1c[nH]cn1)C(=O)N[C@@H](CCCNC(=N)N)C(=O)N[C@@H](CO)C(=O)N[C@@H](CO)C(=O)N[C@@H](CC(N)=O)C(=O)N[C@@H](CC(N)=O)C(=O)N[C@@H](Cc1ccccc1)C(=O)NCC(=O)N[C@@H](C)C(=O)N1CCC[C@H]1C(=O)N[C@@H](CC(C)C)C(=O)N[C@@H](CO)C(=O)N[C@@H](CO)C(=O)N[C@H](C(=O)N[C@@H](CC(N)=O)C(=O)N[C@H](C(=O)NCC(=O)N[C@@H](CO)C(=O)N[C@@H](CC(N)=O)C(=O)N[C@H](C(=O)N[C@@H](Cc1ccc(O)cc1)C(N)=O)[C@@H](C)O)C(C)C)[C@@H](C)O
Amylin receptor human EC50 [1]: 115 pM | CTa receptor human EC50 [2]: 240 pM

B3: N-alpha-[(S)-4-Carboxy-4-(19-carboxynonadecanoylamino)butyryl]-[His1,Glu14,His17,Arg18,Glu25,Ser28,Arg29]-pramlintide (peptide)
peptide: {C20 diacid-γGlu}-HCNTATCATQRLAEFLHRSSNNFGEILSRTNVGSNTY-NH2
modifications: disulfide 2-7
SMILES: CC[C@H](C)[C@H](NC(=O)[C@H](CCC(=O)O)NC(=O)CNC(=O)[C@H](Cc1ccccc1)NC(=O)[C@H](CC(N)=O)NC(=O)[C@H](CC(N)=O)NC(=O)[C@H](CO)NC(=O)[C@H](CO)NC(=O)[C@H](CCCNC(=N)N)NC(=O)[C@H](Cc1c[nH]cn1)NC(=O)[C@H](CC(C)C)NC(=O)[C@H](Cc1ccccc1)NC(=O)[C@H](CCC(=O)O)NC(=O)[C@H](C)NC(=O)[C@H](CC(C)C)NC(=O)[C@H](CCCNC(=N)N)NC(=O)[C@H](CCC(N)=O)NC(=O)[C@@H](NC(=O)[C@H](C)NC(=O)[C@@H]1CSSC[C@H](NC(=O)[C@H](Cc2c[nH]cn2)NC(=O)CC[C@H](NC(=O)CCCCCCCCCCCCCCCCCCC(=O)O)C(=O)O)C(=O)N[C@@H](CC(N)=O)C(=O)N[C@@H]([C@@H](C)O)C(=O)N[C@@H](C)C(=O)N[C@@H]([C@@H](C)O)C(=O)N1)[C@@H](C)O)C(=O)N[C@@H](CC(C)C)C(=O)N[C@@H](CO)C(=O)N[C@@H](CCCNC(=N)N)C(=O)N[C@H](C(=O)N[C@@H](CC(N)=O)C(=O)N[C@H](C(=O)NCC(=O)N[C@@H](CO)C(=O)N[C@@H](CC(N)=O)C(=O)N[C@H](C(=O)N[C@@H](Cc1ccc(O)cc1)C(N)=O)[C@@H](C)O)C(C)C)[C@@H](C)O
Amylin receptor human EC50 [1]: 77.9 pM | CTa receptor human EC50 [2]: 131 pM

B4: N-alpha-[(S)-4-Carboxy-4-(19-carboxynonadecanoylamino)butyryl]-[Glu1,Glu14,His17,Arg18]-pramlintide (peptide)
peptide: {C20 diacid-γGlu}-ECNTATCATQRLAEFLHRSSNNFGPILPPTNVGSNTY-NH2
modifications: disulfide 2-7
SMILES: CC[C@H](C)[C@H](NC(=O)[C@@H]1CCCN1C(=O)CNC(=O)[C@H](Cc1ccccc1)NC(=O)[C@H](CC(N)=O)NC(=O)[C@H](CC(N)=O)NC(=O)[C@H](CO)NC(=O)[C@H](CO)NC(=O)[C@H](CCCNC(=N)N)NC(=O)[C@H](Cc1c[nH]cn1)NC(=O)[C@H](CC(C)C)NC(=O)[C@H](Cc1ccccc1)NC(=O)[C@H](CCC(=O)O)NC(=O)[C@H](C)NC(=O)[C@H](CC(C)C)NC(=O)[C@H](CCCNC(=N)N)NC(=O)[C@H](CCC(N)=O)NC(=O)[C@@H](NC(=O)[C@H](C)NC(=O)[C@@H]1CSSC[C@H](NC(=O)[C@H](CCC(=O)O)NC(=O)CC[C@H](NC(=O)CCCCCCCCCCCCCCCCCCC(=O)O)C(=O)O)C(=O)N[C@@H](CC(N)=O)C(=O)N[C@@H]([C@@H](C)O)C(=O)N[C@@H](C)C(=O)N[C@@H]([C@@H](C)O)C(=O)N1)[C@@H](C)O)C(=O)N[C@@H](CC(C)C)C(=O)N1CCC[C@H]1C(=O)N1CCC[C@H]1C(=O)N[C@H](C(=O)N[C@@H](CC(N)=O)C(=O)N[C@H](C(=O)NCC(=O)N[C@@H](CO)C(=O)N[C@@H](CC(N)=O)C(=O)N[C@H](C(=O)N[C@@H](Cc1ccc(O)cc1)C(N)=O)[C@@H](C)O)C(C)C)[C@@H](C)O
Amylin receptor human EC50 [1]: 354 pM | CTa receptor human EC50 [2]: 1650 pM

The remaining lines, values ahead:

Amylin receptor human EC50 [1]: 253 pM | CTa receptor human EC50 [2]: 284 pM
B5: N-alpha-[(S)-4-Carboxy-4-(19-carboxynonadecanoylamino)butyryl]-[des1,Gly3,Glu14,His17,Arg18,Gln21,Gln22,Glu31,Gly35]-pramlintide (peptide)
peptide: {C20 diacid-γGlu}-CGTATCATQRLAEFLHRSSQQFGPILPPTEVGSGTY-NH2
modifications: disulfide 1-6
SMILES: CC[C@H](C)[C@H](NC(=O)[C@@H]1CCCN1C(=O)CNC(=O)[C@H](Cc1ccccc1)NC(=O)[C@H](CCC(N)=O)NC(=O)[C@H](CCC(N)=O)NC(=O)[C@H](CO)NC(=O)[C@H](CO)NC(=O)[C@H](CCCNC(=N)N)NC(=O)[C@H](Cc1c[nH]cn1)NC(=O)[C@H](CC(C)C)NC(=O)[C@H](Cc1ccccc1)NC(=O)[C@H](CCC(=O)O)NC(=O)[C@H](C)NC(=O)[C@H](CC(C)C)NC(=O)[C@H](CCCNC(=N)N)NC(=O)[C@H](CCC(N)=O)NC(=O)[C@@H](NC(=O)[C@H](C)NC(=O)[C@@H]1CSSC[C@H](NC(=O)CC[C@H](NC(=O)CCCCCCCCCCCCCCCCCCC(=O)O)C(=O)O)C(=O)NCC(=O)N[C@@H]([C@@H](C)O)C(=O)N[C@@H](C)C(=O)N[C@@H]([C@@H](C)O)C(=O)N1)[C@@H](C)O)C(=O)N[C@@H](CC(C)C)C(=O)N1CCC[C@H]1C(=O)N1CCC[C@H]1C(=O)N[C@H](C(=O)N[C@@H](CCC(=O)O)C(=O)N[C@H](C(=O)NCC(=O)N[C@@H](CO)C(=O)NCC(=O)N[C@H](C(=O)N[C@@H](Cc1ccc(O)cc1)C(N)=O)[C@@H](C)O)C(C)C)[C@@H](C)O

Amylin receptor human EC50 [1]: 164 pM | CTa receptor human EC50 [2]: 222 pM
B6: N-alpha-[(S)-4-Carboxy-4-(19-carboxynonadecanoylamino)butyryl]-[des1,Gly3,Glu14,His17,Arg18,Glu31,Gly35]-pramlintide (peptide)
peptide: {C20 diacid-γGlu}-CGTATCATQRLAEFLHRSSNNFGPILPPTEVGSGTY-NH2
modifications: disulfide 1-6
SMILES: CC[C@H](C)[C@H](NC(=O)[C@@H]1CCCN1C(=O)CNC(=O)[C@H](Cc1ccccc1)NC(=O)[C@H](CC(N)=O)NC(=O)[C@H](CC(N)=O)NC(=O)[C@H](CO)NC(=O)[C@H](CO)NC(=O)[C@H](CCCNC(=N)N)NC(=O)[C@H](Cc1c[nH]cn1)NC(=O)[C@H](CC(C)C)NC(=O)[C@H](Cc1ccccc1)NC(=O)[C@H](CCC(=O)O)NC(=O)[C@H](C)NC(=O)[C@H](CC(C)C)NC(=O)[C@H](CCCNC(=N)N)NC(=O)[C@H](CCC(N)=O)NC(=O)[C@@H](NC(=O)[C@H](C)NC(=O)[C@@H]1CSSC[C@H](NC(=O)CC[C@H](NC(=O)CCCCCCCCCCCCCCCCCCC(=O)O)C(=O)O)C(=O)NCC(=O)N[C@@H]([C@@H](C)O)C(=O)N[C@@H](C)C(=O)N[C@@H]([C@@H](C)O)C(=O)N1)[C@@H](C)O)C(=O)N[C@@H](CC(C)C)C(=O)N1CCC[C@H]1C(=O)N1CCC[C@H]1C(=O)N[C@H](C(=O)N[C@@H](CCC(=O)O)C(=O)N[C@H](C(=O)NCC(=O)N[C@@H](CO)C(=O)NCC(=O)N[C@H](C(=O)N[C@@H](Cc1ccc(O)cc1)C(N)=O)[C@@H](C)O)C(C)C)[C@@H](C)O
